Consider 2 molecules from patent US20070026463A1, “Compositions and methods of mutant Nogo-66 domain proteins” (Wyeth, priority 2005, published 2007).

The nature of data set [1]: Aggregation of purified fusion protein by polyacrylamide gel electrophoresis. The class given is physicochemical. The note with it: protein purified from HEK293 conditioned medium by TALON metal affinity chromatography. How it is done: The cDNA (SEQ ID NO:15) of the full-length fusion protein was inserted into the pSMED2 mammalian expression vector and the predicted sequence was confirmed by standard means. The vector was transfected into HEK293 cells and after 48 hours the medium in which the cells were grown was collected (referred to as conditioned medium) (see Example 2). After transfection, the conditioned medium was assayed to determine whether the fusion protein was secreted from the cells. The presence of the fusion protein in the conditioned medium was verified by Western blotting using an antibody against the alkaline phosphatase portion of the fusion. The fusion protein was purified from conditioned medium by TALON (BD/Clonetech) metal affinity chromatography (via the 6 His-tag of the fusion protein) (see Example 2).

In data set [2] the target is T1, human Nogo Receptor-1 protein (NgR1) (Homo sapiens, UniProt Q9BZR6).
T1 construct: expressed in transfected cells; host or cells: COS7
T1 sequence (Q9BZR6 27-447): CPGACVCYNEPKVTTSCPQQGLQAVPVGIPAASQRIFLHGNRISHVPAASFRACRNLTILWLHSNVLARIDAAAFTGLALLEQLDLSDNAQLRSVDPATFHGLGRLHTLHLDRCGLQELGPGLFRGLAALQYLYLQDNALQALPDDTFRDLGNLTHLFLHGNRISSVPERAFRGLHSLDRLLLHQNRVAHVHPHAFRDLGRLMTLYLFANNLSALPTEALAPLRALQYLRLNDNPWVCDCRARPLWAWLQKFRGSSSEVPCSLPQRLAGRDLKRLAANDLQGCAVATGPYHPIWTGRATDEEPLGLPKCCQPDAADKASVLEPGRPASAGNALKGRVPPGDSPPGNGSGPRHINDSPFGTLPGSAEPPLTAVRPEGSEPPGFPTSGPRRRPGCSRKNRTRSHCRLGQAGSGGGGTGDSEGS
The data set is described as follows: Binding of purified fusion protein to NgR1-expressing COS7 cells, colorimetric alkaline phosphatase staining. The note with it: colorimetric staining based on associated alkaline phosphatase activity. How it is done:
Purified fusion protein was assayed for binding to COS7 cells expressing the human Nogo Receptor-1 protein (NgR1). […] Thus, a non-aggregated fusion protein was created that can be used as a reagent to explore the interaction of Nogo-66 with its receptor, or receptors, as well as to identify agents interfering in that interaction (see Example 3).

A further data set addresses T2, NgR1 (Homo sapiens, UniProt Q9BZR6).
T2 construct: expressed in transfected cells; host or cells: CHO
T2 sequence (Q9BZR6 27-447): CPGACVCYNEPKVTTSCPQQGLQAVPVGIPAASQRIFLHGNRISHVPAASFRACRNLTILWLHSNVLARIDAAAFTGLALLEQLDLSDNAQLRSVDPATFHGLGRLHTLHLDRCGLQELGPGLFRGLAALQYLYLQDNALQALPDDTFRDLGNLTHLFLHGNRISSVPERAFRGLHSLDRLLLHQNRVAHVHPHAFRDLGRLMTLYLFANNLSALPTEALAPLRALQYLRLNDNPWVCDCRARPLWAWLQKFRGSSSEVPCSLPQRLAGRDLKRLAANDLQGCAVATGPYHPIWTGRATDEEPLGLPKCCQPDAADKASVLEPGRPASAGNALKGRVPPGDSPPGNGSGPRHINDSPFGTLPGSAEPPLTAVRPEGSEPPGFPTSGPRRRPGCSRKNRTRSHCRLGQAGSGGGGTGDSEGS
Kind of data set: Cell-based chemiluminescent SEAP binding assay on CHO cells expressing NGR1. The conditions noted are these: CSPD substrate. How it is done:
A cell-based chemiluminescent SEAP (secreted alkaline phosphastase) assay was used to confirm binding between NgR1 and the fusion reporter protein having the amino acid sequence of SEQ ID NO:16.
On Day 1: CHO cells expressing NGR1 are seeded into each well of a Biocoat poly-D-lysine cellware 96-well plate (Becton Dickinson).
1. The medium is removed and cells are washed with 200 μl/well of HBAH (Hanks' balanced salt solution, bovine serum albumin at 0.5 mg/ml) at room temperature.
2. 100 μl of conditioned medium containing the fusion protein (i.e., conditioned medium prior to resin purification in Example 2 above) is added (or 2 μg of purified fusion protein can be added) to each well. The wells are incubated at room temperature for 90 minutes.
3. The medium is removed from the wells. The cells are washed six times with 200 μl HBAH at room temperature. For each wash, the HBAH is incubated with the cells for 5 minutes and the plates gently swirled.
4. The HBAH is removed. The cells are then fixed with 200 μl of fixative buffer (acetone-formaldehyde (60%, 3%, 20 mM HEPES, pH 7.0)) for 15 seconds at room temperature.
5. The cells are then washed three times with HBS (Hanks' balanced salt solution), 5 minutes each time at room temperature.
6. Buffers are equilibrated to room temperature. […]
16. Read the plates on a LMAXII Luminometer (Molecular Devices, Sunnyvale, Calif.). […]

Data set [3] concerns the target T3, human Nogo Receptor-1 protein (NgR1) (human, UniProt Q9BZR6 27-447).
T3 construct: whole, on cells; also called NgR1 receptor
T3 sequence (looked up): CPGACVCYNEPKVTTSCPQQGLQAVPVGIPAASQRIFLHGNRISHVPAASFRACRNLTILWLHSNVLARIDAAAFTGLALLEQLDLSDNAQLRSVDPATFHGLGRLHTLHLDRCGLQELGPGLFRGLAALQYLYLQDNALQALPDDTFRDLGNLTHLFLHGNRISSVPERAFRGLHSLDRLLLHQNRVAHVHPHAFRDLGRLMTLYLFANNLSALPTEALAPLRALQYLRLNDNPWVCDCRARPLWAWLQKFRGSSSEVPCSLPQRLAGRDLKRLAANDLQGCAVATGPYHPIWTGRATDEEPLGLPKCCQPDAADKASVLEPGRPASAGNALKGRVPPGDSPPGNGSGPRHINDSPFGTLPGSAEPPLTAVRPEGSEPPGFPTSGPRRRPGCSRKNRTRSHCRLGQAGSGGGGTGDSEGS
Kind of data set: colorimetric alkaline phosphatase staining of COS7 cells expressing human NgR1. How it is done:
Purified fusion protein was assayed for binding to COS7 cells expressing the human Nogo Receptor-1 protein (NgR1). Binding was confirmed by colorimetric staining of NgR1 expressing cells based on associated alkaline phosphatase activity conferred by the fusion protein (see Example 3). Thus, a non-aggregated fusion protein was created that can be used as a reagent to explore the interaction of Nogo-66 with its receptor, or receptors, as well as to identify agents interfering in that interaction (see Example 3).

With “SEQ ID NO:16: Fusion of signal peptide, human placental secreted alkaline phosphatase portion, enterokinase site, human Nogo-66 domain with Cys47 to Val, His6 tag”, the “aggregation state (bands of higher molecular weight)” value in data set [1] was “does not aggregate”; in data set [1] (listed as fusion protein), “not aggregated”. Further, the “binding to COS7 cells expressing human NgR1” value in data set [2] is “Binding was confirmed”. For the same molecule, the “binding to NgR1” value in the data set with NgR1 is recorded as “can bind to NgR1”.

B1: alkaline phosphatase mutant Nogo-66 domain fusion reporter protein (SEQ ID NO:16) (ligand)
chain: TSRSSGIIPVEEENPDFWNREAAEALGAAKKLQPAQTAAKNLIIFLGDGMGVSTVTAARILKGQKKDKLGPEIPLAMDRFPYVALSKTYNVDKHVPDSGATATAYLCGVKGNFQTIGLSAAARFNQCNTTRGNEVISVMNRAKKAGKSVGVVTTTRVQHASPAGTYAHTVNRNWYSDADVPASARQEGCQDIATQLISNMDIDVILGGGRKYMFRMGTPDPEYPDDYSQGGTRLDGKNLVQEWLAKRQGARYVWNRTELMQASLDPSVTHLMGLFEPGDMKYEIHRDSTLDPSLMEMTEAALRLLSRNPRGFFLFVEGGRIDHGHHESRAYRALTETIMFDDAIERAGQLTSEEDTLSLVTADHSHVFSFGGYPLRGSSIFGLAPGKARDRKAYTVLLYGNGPGYVLKDGARPDVTESESGSPEYRQQSAVPLDEETHAGEDVAVFARGPQAHLVHGVQEQTFIAHVMAFAACLEPYTACDLAPPAGTTDAAHPGNDDDDKLSRDKRIYKGVIQAIQKSDEGHPFRAYLESEVAISEELVQKYSNSALGHVNVTIKELRRLFLVDDLVDSLKHHHHHH
notes: Expressed in HEK293 cells and secreted; Used either purified on TALON resin or as conditioned medium; also called fusion protein; secreted alkaline phosphatase mutant Nogo-66 domain fusion reporter protein
On to B1, for which the binding result in data set [3] is recorded as “binds”.
